Test results reported in patent publication US20130084292A1.

Biological target: Gp96 receptor (heat shock protein 90 kDa beta (Grp94 or Gp96), member 1 [Homo sapiens]) (Homo sapiens) (UniProt P14625)
Experiment: cell-based or functional assay

Gp96 receptor (heat shock protein 90 kDa beta (Grp94 or Gp96), member 1 [Homo sapiens]) (Homo sapiens), sequence (P14625 22-803 limits assumed): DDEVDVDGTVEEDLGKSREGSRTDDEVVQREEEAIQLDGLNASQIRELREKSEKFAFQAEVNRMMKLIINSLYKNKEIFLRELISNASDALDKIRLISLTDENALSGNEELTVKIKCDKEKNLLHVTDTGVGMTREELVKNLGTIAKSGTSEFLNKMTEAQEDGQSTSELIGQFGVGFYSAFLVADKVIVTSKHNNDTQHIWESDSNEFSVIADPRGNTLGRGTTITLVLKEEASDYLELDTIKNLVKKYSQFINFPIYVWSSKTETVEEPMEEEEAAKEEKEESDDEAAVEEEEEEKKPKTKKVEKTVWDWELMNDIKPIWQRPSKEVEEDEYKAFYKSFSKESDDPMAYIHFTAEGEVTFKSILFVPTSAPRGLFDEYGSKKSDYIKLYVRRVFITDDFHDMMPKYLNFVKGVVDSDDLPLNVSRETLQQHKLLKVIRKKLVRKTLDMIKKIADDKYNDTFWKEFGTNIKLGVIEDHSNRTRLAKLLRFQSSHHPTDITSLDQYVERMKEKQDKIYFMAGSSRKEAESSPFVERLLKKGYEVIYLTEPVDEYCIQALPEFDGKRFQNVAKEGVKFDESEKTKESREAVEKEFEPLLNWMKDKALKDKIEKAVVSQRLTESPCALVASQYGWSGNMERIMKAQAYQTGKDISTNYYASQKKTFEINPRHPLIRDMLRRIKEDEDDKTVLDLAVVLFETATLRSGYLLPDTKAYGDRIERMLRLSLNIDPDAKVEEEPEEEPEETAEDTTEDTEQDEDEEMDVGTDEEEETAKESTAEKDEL

“OmpA outer membrane protein of E. coli AIEC strain LF82 (from UniProt P0A910 22-346) (ligand)” showed an invasion level of the LF82-ΔompA mutant on IEC pretreated with LF82 OMVs, relative to strain LF82 taken as 100% of 85.2% and a residual invasion level of the LF82-ΔompA mutant in Intestine-407 cells compared to wild-type strain LF82 taken as 100% of 56.3%.
